Results as given in US20240327502A1 (Merck Sharp & Dohme, published 2024).

Legend:
[1] = molecular target: T1, Processed stabilized hMPV PreF trimer (115BV) (human metapneumovirus, strain B2); assay: BLI, ratio to unprocessed PreF trimer
T1 construct: also called Processed hMPV PreF trimer; processed PreF

[2] = molecular target: T1, Processed stabilized hMPV PreF trimer …; assay: BLI, mAb on anti-human Fc sensor
hMPV PostF trimer = molecular target: T2, hMPV PostF trimer (human metapneumovirus, strain B2); assay: BLI, mAb on anti-human Fc sensor
T2 construct: also called MPV PostF (dPFv1)

[3] = molecular target: T3, Unprocessed hMPV PreF trimer (human metapneumovirus, strain B2); assay: BLI, mAb on anti-human Fc sensor
T3 construct: also called Unprocessed hMPV WT PreF trimer; unprocessed hMPV PreF trimeric antigen

Binder | processed/unprocessed PreF trimer binding ratio [1] | Octet binding response [2] [nm] | Octet binding response (hMPV PostF trimer) [nm] | Octet binding response [3] [nm]
M2B12 (antibody, V domains shown, IgG) VH: QVQLVESGGGVVQPGRSLRLSCEASGFTFSSSAMHWVRQAPGKGLEWVAIISYHGTNKDYSDSVRGRFTISRDNSKNTLYLQMNGLRGDDTAVYYCAKEAAVSGNFDSWGQGTMVTVSS VL: QLVLTQSPSASASLGASVKLTCTLISGPSNYAIAWHRQQPQKGPRYLMKVNSDGSHTKGDGIPDRFSGSSSGTERYLIISNLQSEDEADYYCQTWGSGIYVFGPGTKVTVL | 1.16 | 0.438 | 0.445 | 0.378
M2D01 (antibody, V domains shown, IgG) VH: QVQLQESGPGVVKPSETLSLTCTVSRGAITDYHLNWIRQPPGKGLEWIGYISSSGSTNYNPSLKSRVTISQVMSGTQFSLKLTSMSAADTALYYCASSSGRYWGGALDLWGQGTQVIVSS VL: DIVMTQSPDSLAVPLGERATINCKSSQSLLYTSNNKNSLAWYQQKPGQPPKLLLFWASTREFRVPDRFSGSGSGTDFTLTISSLQAEDVAVYYCQQYYTAPYTFGPGTKLEIK | 0.19 | 0.0622 | 0.493 | 0.33
M2D2 (antibody, V domains shown, IgG) VH: QVQLVQSGAEVKKPGASVKVSCKASGYNFDNYYMSWVRQAPGQGLEWLGIIDPSGGRISYAPKFQGRVTLTRDTSTSTVYMELRGLRFEDTALYYCARLEATHEGPWGQGTLVTVSS VL: QSVLTQPPSASGTPGQRVTISCSGSNSNIGSSTVNWYQQLPGTAPKLLIYSDNHRPSGVPDRFSGSRSGTSASLVISGLHSEDEADYYCGTWDDGLNGPYVFGTGTKVTVL | 0.97 | 0.351 | 0.454 | 0.362
M4C03 (antibody, V domains shown, IgG) VH: EVQLVESGGTLVQPGGSLRLSCAASGFRFNAFSMNWVRQAPGKGLEWVSYIDSRSNIIYYADSVKGRFTISRDNAKTSLYLRMSSLRDEDTAVYYCAKALCVVNYDFWSGLLGCAMDVWGQGTTVTVSS VL: QSVLTQPPSVSGAPGQRVTISCTGTTSNIGAGFDVHWYQQVPGTAPKLLIYANTDRPSGVPDRFSASKSGTSASLAITGLQVEDEAHYYCQTYDTTLSGSTVFGGGTKLTVL | 0.12 | 0.0323 | 0.506 | 0.263
M4C08 (antibody, V domains shown, IgG) VH: EVQLVESGGTLVQPGGSLRLSCAASGFKFNAFSMNWVRQAPGKGLEWVSYIDSRSNIIYYADSVKGRFTISRDNAKNSLYLRMSSLRDEDTAVYYCAKALCVVNYDFWSGLLGCAMDVWGQGTTVTVSS VL: QSVLTQPPSVSGAPGQRVTISCTGNTSNIGAGFDVHWYQQVPGTAPKLLIYANTDRPSGVPDRFSASKSGTSASLAITGLQAEDEADYYCQTYDRSLSGSTVFGGGTKLTVL | 0.12 | 0.0268 | 0.467 | 0.222
M4C04 (antibody, V domains shown, IgG) VH: RVTLRESGPALLKPTQTLTLTCTFSGFSLNTYGMSVNWIRQPPGKALEWLSRIDWDGDKYFNTSLKTRLTISKDTSKNQVVLTMTNMEPVDTATYYCAQSVIVPAQSFVSWFDPWGPGTLVTVSS VL: EIVMTQSPATLSVSPGERATLSCRASQSVRSNLAWYQQKPGQAPRLLIYGASSRATGIPARFSGSGSGTEFTLTISSLQSEDLAIYYCQQYNNWPPGAFGQGTKVEIK | 0.89 | 0.303 | 0.442 | 0.342
M2A02 (antibody, V domains shown, IgG) VH: QVQLVQSGAEVKRPGSSVKVSCKASGDIFSSHAISWVRQTPGQGLKWMGRIIPLVGIRNYAQDLQGRVTISADKSINTVYMELTNLRFDDTAVYYCARDRTDWSGGLDIWGQGTRVTVSS VL: EIVLTQSPATLSLSPGERATLSCRASQRIGSYLAWYQQKPGQAPRLLIYDASNRATGIPARFSGSGSGTDFTLTISRLEPEDSAIYYCQQRTDWFTFGGGTKVEIK | 0.3 | 0.0795 | -0.0402 | 0.261
M2A05 (antibody, V domains shown, IgG) VH: QITLKESGPTLVKPTQTLTLTCTVSGFSLSANSVGVAWFRQPPGKAPEWLGVIYWDDDKRFSPSLKTRLSITKDASTSQVVLRLTNVSPLDTATYYCVRKHYDLLQWGQGAPVTVSS VL: EIVLTQSPGTLSLSPGEGATLSCRASRSVNSDYIAWYQHKPGLAPRLLIYAASTRATDIPDRFRADVSGTDFTLTIDRLEPDDFAVYYCQQYGSAVWTFGQGTRVEVK | 1.18 | 0.447 | 0.449 | 0.378
M2A06 (antibody, V domains shown, IgG) VH: QVQLVQSGAEVKKPGASVKISCKASGYSFSNYYIQWVRQAPGQGLEWLGIINPSGGSTDYAQKFEGRVSMTRDTSTNTVYMEMSSLRSEDTASYYCVRSLANGSGSPWGQGTLVIVSS VL: DIQMTQSPSTLSASVGDRVTITCRASQSISSRLAWYQQKPGKAPNLLLYDASRSESGVPSRFSGSGSGTEFTLTISSLQPDDVATYYCQHYSIYSRWTFGQGTKVEIK | 0.22 | 0.052 | -0.0352 | 0.237
M2B10 (antibody, V domains shown, IgG) VH: QVQLVESGGGVVQPGRSLRLSCAASGFTFSNYPMHWVRQAPGKGLAWVALISYDGRTKYYADSVKGRFTISRDNSMNTVYLQMNSLRAEDTAVYYCAREGLEYLNYWGQGTLVTVSS VL: EIVLTQSPGTLSLSPGERATLSCRASQSISSNSLAWYQQKPGQAPRLLSYGTSNRATGIPDRFSGSGSGTDFTLTISRLEPEDFAVYYCQQYGSSPLTFGPGTKVDIK | 0.13 | 0.0278 | -0.0646 | 0.209
M2F01 (antibody, V domains shown, IgG) VH: QVQLVQSGAEVKKPGASVKVSCKASEDTFTNYYMHWVRQAPGQGLEWMGIINPSGGSTDYAQKFQGRVTMTRDTSTSTVYMELSSLRSEDTAMYYCARQGRTAACDYWGQGTLVTVSS VL: DIQMTQSPSSVSASVGDRVTITCRASQGIRSWLAWYQQKPGKAPKLLIYAASTLQSGVPSRFSGSGSGTDFTLTISSLQPEDFATYYCQQSNSFSLFTFGPGTRVDIK | 0.22 | 0.0736 | -0.0326 | 0.335
M4B05 (antibody, V domains shown, IgG) VH: QVQLVQSGPEVRKPGASVIISCKASGYSFISYYIHWVRQAPGQGLEWMGIINPSGGSTEYAQKYQGRLTITRDTSTTTVSMTLSSLRSDDTAVYFCAREQAVGAYDIWGQGTMVTVSS VL: EIVLTQSPGTLSLSPGERATLSCRAGQLINGNYLAWYQKKPGQAPSLLIYDVSRRAAGVPDRFTGSGSGTDFTLTISRLEPDDFAVYYCQHYGRSPSPTFGGGTKVEIK | 0.19 | 0.0529 | -0.0395 | 0.281
M4B11 (antibody, V domains shown, IgG) VH: QVQLVQSGTEVQTPGASVKVSCKTSGYIFTGYFMHWVRQAPGQGFEWMGWVNPYSGATTYAQKFQGRVTMTRDTSISTVYMELSRLTSDDTAIYYCAKDTSNSGPDLLEHWGQGTLVIVSS VL: EIVLTQSPATLSLSPGERATLSCRASQSISNFLVWYQRKPGQAPRLLIFDVSKRATGIPTRFSGSGSGTDFTLTISSLEPEDFAVYYCQQRSNWPPGYTFGQGTKLEIK | 0.18 | 0.0489 | 0.426 | 0.273
M4F8 (antibody, V domains shown, IgG) VH: QVQLVQSGPEVKKPGASVKISCKASEYTFTNHYLHWVRQAPGQGLEWLGIINPTGGSTYYAGDFQGRVTLTRDASTTTVYMELSSVKSEDTAIYYCARDRGMRYFDYWGQGTLVTVSS VL: QSVLTQPPSVSGAPGQRVSISCTGISSNIGATYDVHWYQQLPGTAPKLLIYGNNNRPSGVPDRFSGSKSGTSASLAITGLQAEDEAVYYCQSYDSVLSGSVIFGGGTILTVL | 0.22 | 0.0584 | 0.0408 | 0.271
M2A03 (antibody, V domains shown, IgG) VH: QLQLQESGPGLVKPSETLSLTCSVSGGSISSSSNSWTWIRQPPGKGLEWIATIFYFGSTYYNPSLRSRVAISVDTSENQFSLKLTSVTAADTAVYFCARHILSSSGVSGWLDPWGQGTLVTVSS VL: SYELTQPPSVSVSPGQTASITCSGEKLGSKYAHWYQQKPGRSPVLVIYQDTKRPSGIPERFSGSNSGSTATLTISGTQAMDEADYYCQAWDSSSFVFGTGTTVTVL | 0.29 | 0.109 | 0.477 | 0.369
M3A07 (antibody, V domains shown, IgG) VH: QVQLVQSGAEVQKPGASVKVSCKASGYTFTRHAIHWVRQAPGQRLEWIGWVHGGNENTKYSQKLQGRVTITRDTSASTAYMELNSLRYEDTAVYYCATAMPGAFNMWGQGTVVTVSS VL: DIQMTQSPSTLSASVGDRVTITCRASQSISSWVAWYQQKPGKAPKLLIYKAFSLETGVPSRFSGSGSGTEFTLTISSLQPDDCATYYCQQYGSFSEFTFGQGTKLEIK | 0.17 | 0.0536 | -0.022 | 0.324
M2B09 (antibody, V domains shown, IgG) VH: QVQLVQSGPEVKGPGASVRVSCKANGYTFTSYGINWVRQTPGQGLQWMGWISVHTDDTKDVQQFQDRVTMTTDTSTSTVFMELRNLRFDDTAVYYCARDRTDISGRVRDAFDLWGQGTLVTVSS VL: SYVLTQPPSVSVAPGQTAKITCGGNNIGSKSVHWYRQKPGQAPVLVVYDDSDRPSGIPERFSGSNSGNTATLTISRVEAGDEADYYCHVWDSYSDPNYVFGSGTKVTVL | 0.03 | 0.0092 | -0.0435 | 0.302
